Results on 21 sequences are retold here after the DeepSol protein solubility set.

A short description of the data set: soluble on expression in E. coli; label from the status in PepcDB or PDB records.
Take “MGSDKIHHHHHHMVKSANLLHVSQPAVTKTVRELEEILGVSLFEREGRGIRITRYGEVFLRHAGATLAALRHAVDSVSQEAAKAGPPVRVGALPTVATRIMPQAMTAFLAENTGSPIKIVTGDNSVLLEQLRIGELDLVVGRLAAPEKMAGFSFEHLYSEPVVFVVRAGHPLLTGETAPFERMRDFPVLMPTRNSIIRPLVDYFLIANGVATLPNQIETVSDSFGRAFLKISDAVWVISEGVVAGDIAEGTICALPIDCSPTRGPVGLTVRADAMATLPQSLLMQAIRDAAAAIMP”: the “soluble on expression in E. coli” value is on record as “not soluble”.

Consider “MCMYGGIYVNNGYSPMSSNQQNVSVEHDIIMRGRRVIDITGVKQVESFDSEEFLLETVMGFLTIRGQNLQMKNLDVEKGVVSIKGKVHEMLYIDENQGEKTKGFFSKLFKLEHHHHHH”, for which the “soluble on expression in E. coli” value is “soluble”.

Consider “MNRRMMLASAALLLAPLAAQAQTRDVSVTIYNSNLALVEDARPLDLKAGRQKLEFKDVSAAIRPETVSLSAPGVTILEQNFDYDLLTPDKLMEKAVGQKVKIVRTNPGDGKETTEVATVLAANQGVVLKIGDRIEVLRDDGVPTRVIFDKVPETLRARPTLSVSVEAAGAGTRQAKLSYLTSGLSWKADYVALFDEAKSTMDLQGWITLSNNSGTPFENARTQLVAGDVNQLNDGGYRSSRSPGMISAGTESGVGERVADYYVYPLPERTTIASNQNKQVGFLSAQGVTAKKVYEVREGWFTSQAEPTKAVVAIQFSNARLAGLGAQLPMGTMRVYMRDAAGDPKFVGENAIGHTPAGSELSIKTGEAFDVSGQATLVAESRVSKRLTRYEMKYLLRNAKDQPVTVELRQGGLGRDSTVKAESLKGRRIDAGTLGWSVPVPANGETVLTFTVETGWLEHHHHHH”, for which the “soluble on expression in E. coli” value is reported as “soluble”.

“MGHHHHHHSHMSVAGGEIRGDTGGEDTAAPGRFSFSPEPTLEDIRRLHAEFAAERDWEQFHQPRNLLLALVGEVGELAELFQWKTDGEPGPQGWSPRERAALQEELSDVLIYLVALAARCRVDLPLAVLSKMDINRRRYPAHLARSSSRKYTELPHGAISEDQAVGPADIPCDSTGQTST”: the “soluble on expression in E. coli” value is “soluble”.

For “MGSDKIHHHHHHMPLMPTTLCSHAGCNARAVGNGVCRIHKPKAKRQAPNQIKQAEPAKLKRIDHRLSASQRGYDVRWRSARLLFLNDEPLCRHCITQDITKGADVVDHILPHRGNQELFWDQTNWQPLCYPCHSIKTTTVDNKLSDYDIAQLRQGGWGKK”, the “soluble on expression in E. coli” value is on record as “not soluble”.

For the sequence “MAGEKFQKKGKEKWKEKVWYTVEAPPYLGSKEVSVALGEDSNSMVNRVVEVPISELTGNFKKSNEKALFRITNCEGTKCKTIFIGHYIGDDYIRRLVRRRKERIDIIEDVKTSDNSIITVKIVVVTDGKVTNTKKFQIRKVLTDFILNKGLSLPYSEFVRYLIGDDIYNDMISATKDIYPLKKIEVRKSELVSLSGISEIHAGSQNSGEEPVVQNLEHHHHHH”, the “soluble on expression in E. coli” value was “not soluble”.

“AIAETEIHVPVGSPTIRKFQIFVDEHNVTEGAMKLIKELRPGWDPNLIRTKLFTDGTTNKLVGCYVEDCVEDVVLVRVYGNKTELIVDRDNELKSFQVLHANGCAPRLYCTFQNGICYEFMQGRALDTQDVRDPVLLRLIAREMARIHAIHAHNGCIPKPNLWIKMRKYFSLVATEFTEQASNIRIQQEVPSQEVLEQEMMWMKEHLSQLGSPVVLCHNDLLCKNIIHNAKEGHVRFIDYEYSSYNYQAFDIGNHFNEFAGMSEPDYNLYPSREMQLDWLQTYLQAYKLFTKKGEDVSERELETLYVQVNKFALASHFFWGFWALIQAKYSTIEFDFLGYAVLRFNQYFKTKPAVMALEIPK”: the “soluble on expression in E. coli” value is recorded as “soluble”.

In the case of “SNAMIIADNIKQFHSIRNSLIKQQKIGFVPTMGALHNGHISLIKKAKSENDVVIVSIFVNPTQFNNPNDYQTYPNQLQQDIQILASLDVDVLFNPSEKDIYPDGNLLRIEPKLEIANILEGKSRPGHFSGMLTVVLKLLQITKPNNLYLGEKDYQQVMLIKQLVKDFFINTKIIVCPTQRQPSGLPLSSRNKNLTSTDIEIANKIYEILRQDDFSNLEELTNKINSTGAKLQYIQKLNNRIFLAFYIGKVRLIDNFLKETGPSC”, the “soluble on expression in E. coli” value is listed as “soluble”.

With “MGSDKIHHHHHHADTFSVLAHELMHFVYPSGTELLTPNVTKAANKCTQDEVKMMGDSDAVKPIDGWFSKKVTHEDLANIMGLRMVMKMAAKKSVNEEQLKNALETILGGLCIQGKPKNSILPHHHPFEISINTAVRQYPLFSSLYGCRPGDRMFAEAEKFCNPLGGEVNLEDYKIKNDTEDIGGFFNYIMDTANAFNFSIEN”, the “soluble on expression in E. coli” value is on record as “not soluble”.

Consider “MGKILVLSDIHYPYCDIDEINKIMLSERPSLTVLLGDIIVSKSEDYRNFIDKLKIRKNIIYVKGDEDKFRGDFDLIKIKNNGKRFILLHGHQYFNENNEYSLAKVLKKMNDNIPPLLFCIFFRIMLRNFKDTIILGHSHAL”, for which the “soluble on expression in E. coli” value is “soluble”.

Turning to “MHHHHHHSSGVDLGTENLYFQSMCAAQMPPLAHIFRGTFVHSTWTCPMEVLRDHLLGVSDSGKIVFLEEASQQEKLAKEWCFKPCEIRELSHHEFFMPGLVDTHIHASQYSFAGSSIDLPLLEWLTKYTFPAEHRFQNIDFAEEVYTRVVRRTLKNGTTTACYFATIHTDSSLLLADITDKFGQRAFVGKVCMDLNDTFPEYKETTEESIKETERFVSEMLQKNYSRVKPIVTPRFSLSCSETLMGELGNIAKTRDLHIQSHISENRDEVEAVKNLYPSYKNYTSVYDKNNLLTNKTVMAHGCYLSAEELNVFHERGASIAHCPNSNLSLSSGFLNVLEVLKHEVKIGLGTDVAGGYSYSMLDAIRRAVMVSNILLINKVNEKSLTLKEVFRLATLGGSQALGLDGEIGNFEVGKEFDAILINPKASDSPIDLFYGDFFGDISEAVIQKFLYLGDDRNIEEVYVGGKQVVPFSSSV”, the “soluble on expression in E. coli” value was “soluble”.

Take “DTVANASGPLMVEIVKTPGSALGISLTTTSLRNKSVITIDRIKPASVVDRSGALHPGDHILSIDGTSMEHCSLLEATKLLASISEKVRLEILPVPQSQRPLRPS”: the “soluble on expression in E. coli” value is reported as “soluble”.

Take “MATEVTFFDELKIDNKVDIIGNNVRGELPNIWLQYGQFKLKASGGDGTYSWYSENTSIATVDASGKVTLNGKGSVVIKATSGDKQTVSYTIKAPSYMIKVDKQAYYADAMSICKNLLPSTQTVLSDIYDSWGAANKYSHYSSMNSITAWIKQTSSEQRSGVSSTYNLITQNPLPGVNVNTPNVYAVCVE”: the “soluble on expression in E. coli” value is “soluble”.

As to “MAHHHHHHMSAAVQTLATVMATDMNYYAGDPTVLAADAASSRVEQILQSSRSDQLTARVAIHAQLREAFKNVDVQQRFKPFLSDGENIQMYVQDAKARARFFSQKQQELQHDILQSEEQRQLKEAHGELAAWERENAVLLRHQMFMTYMPSQALLLESAATVALYRQYATLEEGQYTSDSSDGEVPMMLKKMGGKTYFTQSEQPFEVDTHNKMFSQQVLQNKRVEYEQMREKAAQLRQALEECPTVKRLEAFVELRNDIFVAYGIDRLASLCSRKDKEMGNPNEGGVDASLHGLPADDEYVSSSRVAQYSLPKIVDAAYKNYLNILSMDDWDAMMKHTGSNARAVMEKIKPMKDKETFRYWFLSCITADVPQMGPNKIVGQKATTLEDYKKFWAPQKSNYVPSLTSNRSIFGSKVADRRGLPHFLILSPVTYRYRENNDPNAVKTGTMDLMVYDATNEKVLLMLTNSSDERRPRAAFLKAQEERYRFAAVVRSAITYENQYHGFECEGTVAEYFFDAQEGPEENYYCIMAPHRVYSKQPNKVQVPMKALRPFTSCPPRYFVLGSNWGVSAGTRRNPYPASYAHVELNENAVGLSNVIPDGFISSKVLPQLLSHAEGVQKLEEEMKRQQRAELERPQLSPRALTRASRGGAATPRPSTAPPSPENNAADILADENMRGPGEEEDPLSPLVPNEVLRPVRDQLLKQRRSWQSPAYIAFRARDSDLRRLPAVKDGHLRTPLNVFNDLMREKHGEDAPPASAPSSARRSNGPPSSRTASVACT”, the “soluble on expression in E. coli” value was “not soluble”.

On to “TFRLVIACPDGVGIVAKVSNFLATYNGWITEASHHSDNDNGWFFMRHEIRADSLPFDLDGFRQAFAPIAREFSMEWRITDSEVKKRVVLMASKESHCLADLLHRWHSGELDCEIPCVIANHDDLRSMVEWHGIPYFHVPVDPQDKQPAFDEVSRLIDEHGADCIVLARYMQILPPDLCRKYAHQVINIHHSFLPSFIGAKPYHQASKRGVKLIGATSHYVTEELDAGPIIEQDVVRVTHRDNVEDMVRLGKDVEKLVLARGLRYHLEDRVLVH”, for which the “soluble on expression in E. coli” value is reported as “not soluble”.

Take “TESGTAAQDPEALAAEIGPVKQVSLGEQIDAALAQQGEQLFNTYCTACHRLDERFIGPALRDVTKRRGPVYIMNVMLNPNGMIQRHPVMKQLVQEYGTMMTDMALSEEQARAILEYLRQVAENQ”: the “soluble on expression in E. coli” value is listed as “soluble”.

Consider “MSLFFGFTSCLDICPSTLTILGQAEKHRENLPETQRPQVLFVSINPDRDSPLRLSGYARAFHKNILTTTADTPALQRFATALGLRFRKVPGKSYAENPLDDTMDHPTAIVVLDPQGHHVGMIHPPFNAEEIPTDLQKLTKEITEGHHHHHH”, for which the “soluble on expression in E. coli” value was “not soluble”.

“MNVSVVIPALNEEATVADVVALSRRGSDEVIVIDSDSTDATAARAKAAGASVVNWRDVVSLPPIPGKGEALWRGVAAARGDVVVFLDADLTEISPTIVEDLARPFIDDSVMLAKAAYTRGDASGGGGRVTELTARPLLEAFFPELGFVRQPLGGEYAIRRSAALDLPFVGGYGVEVGLLIDVFRCFGAASIVEVEAGHRGHRHRPLRELAPMARVVASTILQRAGVASGLDGVGQRPAISSLESGVGKVLEHHHHHH”: the “soluble on expression in E. coli” value was “soluble”.

With “MTKALFFDIDGTLVSFETHRIPSSTIEALEAAHAKGLKIFIATGRPKAIINNLSELQDRNLIDGYITMNGAYCFVGEEVIYKSAIPQEEVKAMAAFCEKKGVPCIFVEEHNISVCQPNEMVKKIFYDFLHVNVIPTVSFEEASNKEVIQMTPFITEEEEKEVLPSIPTCEIGRWYPAFADVTAKGDTKQKGIDEIIRHFGIKLEETMSFGDGGNDISMLRHAAIGVAMGQAKEDVKAAADYVTAPIDEDGISKAMKHFGII”, the “soluble on expression in E. coli” value is recorded as “soluble”.

As to “MAHHHHHHMPPLTLEQVLARSMRLPRKHMKHTATPMASNPAIGISTPLDNSLGRGDKSVAKLFSLIEKDEESTAAGRPFIHQSNNLIRNSHDLLTYLHTAKRMRAWEDALRSFAEVTKMLLINQTEEGDGVSLTLREGAEGAEGVTASVSHLALLLDTCASAKQWHLVEQIGEIFRSQSRQTLIDAVAVLANTKKETIGEGLYGWERALHFLQTRIPPEEQPVEAYNACIAACETALEWEGALAIVRSMGPNPLQNLDSKVFSGTTGIGVASAGSTVEGVSSSLGTEAREESVLATFPPPVPDVVTYATLISVLEQSGKEALASEVLQRLPPVEKEEITASYAALIHVWSEQKYRNHRRRF”, the “soluble on expression in E. coli” value is “not soluble”.

For the sequence “MPERYTGSDGKTYLFKGWYKGNAKPSTLETTKTPSYAVTYDDNDDLHVVYEEAVMKTYTLPAREALFGYVDEQGNLINPAKFKLSATMGESDGATGEMTTFPTIDGIDMPASQLKKLAIPQKVYTRPDDGTIVTYGPQEVSVEIPKYYQTISISPTTAYTGDKTKYPVPNEVRRGIENPDNIVSSLVGTTAYNLTQKSATRYTARRSYWTWGPTKTLYSMSIYSGTAGGNYNLSTPDGTIYYYLENRRVTEHFVDESGAKITPPTGFTQGNQLVVDSENYVYTVAKALPKIYQAGEKTYIFQGWFKGKTKPATLKTTTTPSFTPTFNDEDDMTAVYQEAIPTAELTLTGAVDIIENGATMDYWEALLKNTGEAPLTTIKIKPTATWAAGIGAPNTIFVQGTGQNTKAFPVTKEQWTTGAGVSITLDQPLPAGGQLKMNLLGTAVTGNPGQVLTADVEVTGNFGSLTAKDTVRIKDLDQEITSPDGDGFISTPTFDFGKLAISGSKQQYGLKKAADYYGNGTRNPYLRLNTSQANWSLTAQLSQPKSATDSLPTTTRLLLGTAAAASFTDYNQPTETRTPLGKTSTVTLTADNTATAVVANQQFTGSDVYQLDFTFANIKLEVPANQGMAGQQYQAAVTWNLVTGP”, the “soluble on expression in E. coli” value is on record as “not soluble”.
